Data as given in patent US20030036631.

Tests used:
[1] = molecular target: GST-SiglecBMSL3cyto (wildtype)

| Protein | phosphorylation of wildtype GST-SIGLECBMS-L3cyto (kinase ELISA, anti p-Tyr HRP) [1] | Decrease in Wild type Phosphorylation (GST-L3cyto-Y667F) [%] | Decrease in Wild type Phosphorylation (L3cyto-Y691F) [%] | Decrease in Wild type Phosphorylation (GST-L3cyto-Y641alone) [%] |
| --- | --- | --- | --- | --- |
| emt kinase (protein) MNNFILLEEQLIKKSQQKRRTSPSNFKVRFFVLTKASLAYFEDRHGKKRTLKGSIELSRIKCVEIVKSDISIPCHYKYPFQVVHDNYLLYVFAPDRESRQRWVLALKEETRNNNSLVPKYHPNFWMDGKWRCCSQLEKLATGCAQYDPTKNASKKPLPPTPEDNRRPLWEPEETVVIALYDYQTNDPQELALRRNEEYCLLDSSEIHWWRVQDRNGHEGYVPSSYLVEKSPNNLETYEWYNKSISRDKAEKLLLDTGKEGAFMVRDSRTAGTYTVSVFTKAVVSENNPCIKHYHIKETNDNPKRYYVAEKYVFDSIPLLINYHQHNGGGLVTRLRYPVCFGRQKAPVTAGLRYGKWVIDPSELTFVQEIGSGQFGLVHLGYWLNKDKVAIKTIREGAMSEEDFIEEAEVMMKLSHPKLVQLYGVCLEQAPICLVFEFMEHGCLSDYLRTQRGLFAAETLLGMCLDVCEGMAYLEEACVIHRDLAARNCLVGENQVIKVSDFGMTRFVLDDQYTSSTGTKFPVKWASPEVFSFSRYSSKSDVWSFGVLMWEVFSEGKIPYENRSNSEVVEDISTGFRLYKPRLASTHVYQIMNHCWKERPEDRPAFSRLLRQLAEIAESGL | emt(65%) | 70 |  |  |
| JAK3 kinase (protein) MAPPSEETPLIPQRSCSLLSTEAGALHVLLPARGPGPPQRLSFSFGDHLAEDLCVQAAKASGILPVYHSLFALATEDLSCWFPPSHIFSVEDASTQVLLYRIRFYFPNWFGLEKCHRFGLRKDLASAILDLPVLEHLFAQHRSDLVSGRLPVGLSLKEQGECLSLAVLDLARMAREQAQRPGELLKTVSYKACLPPSLRDLIQGLSFVTRRRIRRTVRRALRRVAACQADRHSLMAKYIMDLERLDPAGAAETFHVGLPGALGGHDGLGLLRVAGDGGIAWTQGEQEVLQPFCDFPEIVDISIKQAPRVGPAGEHRLVTVTRTDNQILEAEFPGLPEALSFVALVDGYFRLTTDSQHFFCKEVAPPRLLEEVAEQCHGPITLDFAINKLKTGGSRPGSYVLRRSPQDFDSFLLTVCVQNPLGPDYKGCLIRRSPTGTFLLVGLSRPHSSLRELLATCWDGGLHVDGVAVTLTSCCIPRPKEKSNLIVVQRGHSPPTSSLVQPQSQYQLSQMTFHKIPADSLEWHENLGHGSFTKIYRGCRHEVVDGEARKTEVLLKVMDAKHKNCMESFLEAASLMSQVSYRHLVLLHGVCMAGDSTMVQEFVHLGAIDMYLRKRGHLVPASWKLQVVKQLAYALNYLEDKGLPHGNVSARKVLLAREGADGSPPFIKLSDPGVSPAVLSLEMLTDRIPWVAPECLREAQTLSLEADKWGFGATVWEVFSGVTMPISALDPAKKLQFYEDRQQLPAPKWTELALLIQQCMAYEPVQRPSFRAVIRDLNSLISSDYELLSDPTPGALAPRDGLWNGAQLYACQDPTIFEERHLKYISQLGKGNFGSVELCRYDPLGDNTGALVAVKQLQHSGPDQQRDFQREIQILKALHSDFIVKYRGVSYGPGRQSLRLVMEYLPSGCLRDFLQRHRARLDASRLLLYSSQICKGMEYLGSRRCVHRDLAARNILVESEAHVKIADFGLAKLLPLDKDYYVVREPGQSPIFWYAPESLSDNIFSRQSDVWSFGVVLYELFTYCDKSCSPSAEFLRMMGCERDVPALCRLLELLEEGQRLPAPPACPAEVHELMKLCWAPSPQDRPSFSALGPQLDMLWSGSRGCETHAFTAHPEGKHHSLSFS | JAK3 (92%) | 50 | 25 |  |
| ZAP70 kinase (protein) MPDPAAHLPFFYGSISRAEAEEHLKLAGMADGLFLLRQCLRSLGGYVLSLVHDVRFHHFPIERQLNGTYAIAGGKAHCGPAELCEFYSRDPDGLPCNLRKPCNRPSGLEPQPGVFDCLRDAMVRDYVRQTWKLEGEALEQAIISQAPQVEKLIATTAHERMPWYHSSLTREEAERKLYSGAQTDGKFLLRPRKEQGTYALSLIYGKTVYHYLISQDKAGKYCIPEGTKFDTLWQLVEYLKLKADGLIYCLKEACPNSSASNASGAAAPTLPAHPSTLTHPQRRIDTLNSDGYTPEPARITSPDKPRPMPMDTSVYESPYSDPEELKDKKLFLKRDNLLIADIELGCGNFGSVRQGVYRMRKKQIDVAIKVLKQGTEKADTEEMMREAQIMHQLDNPYIVRLIGVCQAEALMLVMEMAGGGPLHKFLVGKREEIPVSNVAELLHQVSMGMKYLEEKNFVHRDLAARNVLLVNRHYAKISDFGLSKALGADDSYYTARSAGKWPLKWYAPECINFRKFSSRSDVWSYGVTMWEALSYGQKPYKKMKGPEVMAFIEQGKRMECPPECPPELYALMSDCWIYKWEDRPDFLTVEQRMRACYYSLASKVEGPPGSTQKAEAACA | ZAP70 (20%) | 100 |  | 20 |
